Data published in patent US20240124560A1.

Tests used:
Assay in all cases: cell-based or functional assay
[1] = target: HIV-1 Env of NIH-100_6041.v3.c23 (HIV-1)
[2] = target: HIV-1 Env of NAC_BG505 (HIV-1)
[3] = target: HIV-1 Env of NIH-119_T211.9 (HIV-1)
[4] = target: HIV-1 Env of pseudovirus NIH-016_SC05.8C11.2344 (HIV-1)
[5] = target: HIV-1 Env of NIH-107_T251.18 (HIV-1)
[6] = target: HIV-1 Env of NAC_SS1196.1 (HIV-1)
[7] = target: HIV-1 Env of pseudovirus NIH-088_X1632 S2 B10 (clade G) (HIV-1)
[8] = target: HIV-1 Env of NIH-072_R3265.c06 (HIV-1)
[9] = target: HIV-1 Env of pseudovirus NIH-074_C4118.c09 (HIV-1)
[10] = target: HIV-1 Env of pseudovirus NIH-090_A07412M1.vrc12 (clade D) (HIV-1)
[11] = target: HIV-1 Env of pseudovirus NIH-050_CNE21 (HIV-1)
[12] = target: HIV-1 Env of pseudovirus NIH-060_Q769ENVd22 (HIV-1)
[13] = target: HIV-1 Env of NIH-044_ZM247F.F7 (HIV-1)
[14] = target: HIV-1 Env of pseudovirus NIH-040_Ce703010054 2A2 (HIV-1)
[15] = target: HIV-1 Env of pseudovirus NIH-008_WEAU.d15.410.787 (HIV-1)
[16] = target: HIV-1 Env of pseudovirus NIH-085_X2088 c9 (clade G) (HIV-1)
[17] = target: HIV-1 Env of pseudovirus NIH-066_191084 B7.19 (HIV-1)
[18] = target: HIV-1 Env of isolate NIH-088_X1632 S2 B10 (HIV-1)
[19] = target: HIV-1 Env of pseudovirus NIH-007_CAAN5342.A2 (HIV-1)
[20] = target: HIV-1 Env of pseudovirus NIH-069_C1080.c03 (HIV-1)
[21] = target: HIV-1 Env of pseudovirus NIH-038_Ce1172 H1 (HIV-1)
[22] = target: HIV-1 Env of pseudovirus NIH-012_1012.11.TC21.3257 (HIV-1)
[23] = target: HIV-1 Env of pseudovirus NIH-010_1054.07.TC4.1499 (HIV-1)
[24] = target: HIV-1 Env of NAC_92BR020 (HIV-1)
[25] = target: HIV-1 Env of pseudovirus NIH-073_C3347.c11 (HIV-1)
[26] = target: HIV-1 Env of NIH-025_ZM109F.PB4 (HIV-1)
[27] = target: HIV-1 Env of pseudovirus NIH-001_6535.3 (HIV-1)
[28] = target: HIV-1 Env of NIH-029_HIV-001428.2.42 (HIV-1)
[29] = target: HIV-1 Env of pseudovirus NIH-082_X1193 c1 (clade G) (HIV-1)
[30] = target: HIV-1 Env of NIH-074_C4118.c09 (HIV-1)
[31] = target: HIV-1 Env of pseudovirus NIH-023_ZM249M.PL1 (HIV-1)
[32] = target: HIV-1 Env of NIH-054_CNE53 (HIV-1)
[33] = target: HIV-1 Env of isolate NIH-098_89.F1 2 25 (HIV-1)
[34] = target: HIV-1 Env of NAC_JRCSF (HIV-1) (UniProt P20871)
[35] = target: HIV-1 Env of isolate NIH-086_X2131 C1 B5 (HIV-1)
[36] = target: HIV-1 Env of NIH-024_ZM53M.PB12 (HIV-1)
[37] = target: HIV-1 Env of pseudovirus NIH-031_HIV-16055.2.3 (HIV-1)
[38] = target: HIV-1 Env of NIH-070_R2184.c04 (HIV-1)
[39] = target: HIV-1 Env of pseudovirus NIH-017_Du156.12 (HIV-1)
[40] = target: HIV-1 Env of pseudovirus NHI-028_CAP210.E8 (HIV-1)
[41] = target: HIV-1 Env of NAC_94UG103 (HIV-1)
[42] = target: HIV-1 Env of NIH-012_1012.11.TC21.3257 (HIV-1)
[43] = target: HIV-1 Env of NIH-041_BF1266.431a (HIV-1)
[44] = target: HIV-1 Env of pseudovirus NIH-076_CNE5 (HIV-1)
[45] = target: HIV-1 Env of pseudovirus NIH-039_Ce2060 G9 (HIV-1)

Substance: 4E10 (antibody)
- IC80 neutralization [1]: 22.2 µg/mL
- IC80 neutralization [2]: 4.88 µg/mL
- IC80 neutralization [3]: 5.08 µg/mL
- neutralization IC50 [4]: 0.828 µg/mL
- IC80 neutralization [5]: 3.97 µg/mL
- IC80 neutralization [6]: 3.96 µg/mL
- IC50 (µg/ml), TZM-bl cell neutralization assay, pseudovirus [7]: 2.57 µg/mL
- IC80 neutralization [8]: 2 µg/mL
- neutralization IC50 [9]: 0.322 µg/mL
- IC50 (µg/ml), TZM-bl cell neutralization assay, pseudovirus [10]: 2.58 µg/mL
- neutralization IC50 [11]: 0.513 µg/mL
- neutralization IC50 [12]: 1.61 µg/mL
- IC80 neutralization [13]: 7.5 µg/mL
- neutralization IC50 [14]: 2.05 µg/mL
- neutralization IC50 [15]: 0.621 µg/mL
- IC50 (µg/ml), TZM-bl cell neutralization assay, pseudovirus [16]: > 50 µg/mL
- neutralization IC50 [17]: 1.23 µg/mL
- IC80 (µg/ml), TZM-bl pseudovirus neutralization [18]: 10.4 µg/mL
- neutralization IC50 [19]: 2.84 µg/mL
- neutralization IC50 [20]: 0.328 µg/mL
- neutralization IC50 [21]: 8.81 µg/mL
- neutralization IC50 [22]: 2.06 µg/mL
- neutralization IC50 [23]: 1.35 µg/mL
- IC80 neutralization [24]: 13.5 µg/mL
- neutralization IC50 [25]: 0.034 µg/mL
- IC80 neutralization [26]: 3.17 µg/mL
- neutralization IC50 [27]: 0.519 µg/mL
- IC80 neutralization [28]: 24.7 µg/mL
- IC50 (µg/ml), TZM-bl cell neutralization assay, pseudovirus [29]: 0.359 µg/mL
- IC80 neutralization [30]: 1.17 µg/mL
- neutralization IC50 [31]: 1.44 µg/mL
- IC80 neutralization [32]: 1.52 µg/mL
- IC80 (µg/ml), TZM-bl pseudovirus neutralization [33]: 21.7 µg/mL
- IC80 neutralization [34]: 3.92 µg/mL
- IC80 (µg/ml), TZM-bl pseudovirus neutralization [35]: 0.765 µg/mL
- IC80 neutralization [36]: 42.6 µg/mL
- neutralization IC50 [37]: 1.59 µg/mL
- IC80 neutralization [38]: 0.762 µg/mL
- neutralization IC50 [39]: 0.101 µg/mL
- neutralization IC50 [40]: 0.847 µg/mL
- IC80 neutralization [41]: 7.48 µg/mL
- IC80 neutralization [42]: 8.25 µg/mL
- IC80 neutralization [43]: 10 µg/mL
- neutralization IC50 [44]: 1.34 µg/mL
- neutralization IC50 [45]: 1.24 µg/mL

Substance: PGZL1 (antibody)
- IC80 neutralization [1]: > 50 µg/mL
- IC80 neutralization [2]: > 50 µg/mL
- IC80 neutralization [3]: > 50 µg/mL
- neutralization IC50 [4]: 5.77 µg/mL
- IC80 neutralization [5]: > 50 µg/mL
- IC80 neutralization [6]: 22.2 µg/mL
- IC50 (µg/ml), TZM-bl cell neutralization assay, pseudovirus [7]: 15.5 µg/mL
- IC80 neutralization [8]: > 50 µg/mL
- neutralization IC50 [9]: 8.37 µg/mL
- IC50 (µg/ml), TZM-bl cell neutralization assay, pseudovirus [10]: 13.9 µg/mL
- neutralization IC50 [11]: 4.23 µg/mL
- neutralization IC50 [12]: 20.2 µg/mL
- IC80 neutralization [13]: 48.2 µg/mL
- neutralization IC50 [14]: 48.9 µg/mL
- neutralization IC50 [15]: 10 µg/mL
- IC50 (µg/ml), TZM-bl cell neutralization assay, pseudovirus [16]: > 50 µg/mL
- neutralization IC50 [17]: 30.9 µg/mL
- IC80 (µg/ml), TZM-bl pseudovirus neutralization [18]: > 50 µg/mL
- neutralization IC50 [19]: 34 µg/mL
- neutralization IC50 [20]: 1.73 µg/mL
- neutralization IC50 [21]: 0.948 µg/mL
- neutralization IC50 [22]: 13.3 µg/mL
- neutralization IC50 [23]: 5.15 µg/mL
- IC80 neutralization [24]: > 50 µg/mL
- neutralization IC50 [25]: 0.055 µg/mL
- IC80 neutralization [26]: 29.7 µg/mL
- neutralization IC50 [27]: 1.42 µg/mL
- IC80 neutralization [28]: > 50 µg/mL
- IC50 (µg/ml), TZM-bl cell neutralization assay, pseudovirus [29]: 5.31 µg/mL
- IC80 neutralization [30]: 33.3 µg/mL
- neutralization IC50 [31]: 12.7 µg/mL
- IC80 neutralization [32]: 23.9 µg/mL
- IC80 (µg/ml), TZM-bl pseudovirus neutralization [33]: > 50 µg/mL
- IC80 neutralization [34]: > 50 µg/mL
- IC80 (µg/ml), TZM-bl pseudovirus neutralization [35]: 3.5 µg/mL
- IC80 neutralization [36]: > 50 µg/mL
- neutralization IC50 [37]: 10.9 µg/mL
- IC80 neutralization [38]: > 50 µg/mL
- neutralization IC50 [39]: 0.623 µg/mL
- neutralization IC50 [40]: 16.7 µg/mL
- IC80 neutralization [41]: > 50 µg/mL
- IC80 neutralization [42]: > 50 µg/mL
- IC80 neutralization [43]: > 50 µg/mL
- neutralization IC50 [44]: 24.6 µg/mL
- neutralization IC50 [45]: 15 µg/mL

Substance: VRC01 (antibody)
- IC80 neutralization [1]: 0.087 µg/mL
- IC80 neutralization [2]: 0.213 µg/mL
- IC80 neutralization [3]: > 50 µg/mL
- neutralization IC50 [4]: 0.508 µg/mL
- IC80 neutralization [5]: 8.63 µg/mL
- IC80 neutralization [6]: 0.659 µg/mL
- IC50 (µg/ml), TZM-bl cell neutralization assay, pseudovirus [7]: 0.338 µg/mL
- IC80 neutralization [8]: 0.502 µg/mL
- neutralization IC50 [9]: 0.05 µg/mL
- IC50 (µg/ml), TZM-bl cell neutralization assay, pseudovirus [10]: 0.051 µg/mL
- neutralization IC50 [11]: 0.212 µg/mL
- neutralization IC50 [12]: 0.025 µg/mL
- IC80 neutralization [13]: 0.945 µg/mL
- neutralization IC50 [14]: 0.139 µg/mL
- neutralization IC50 [15]: 0.076 µg/mL
- IC50 (µg/ml), TZM-bl cell neutralization assay, pseudovirus [16]: > 50 µg/mL
- neutralization IC50 [17]: 0.049 µg/mL
- IC80 (µg/ml), TZM-bl pseudovirus neutralization [18]: 1.35 µg/mL
- neutralization IC50 [19]: 0.691 µg/mL
- neutralization IC50 [20]: 1.4 µg/mL
- neutralization IC50 [21]: > 50 µg/mL
- neutralization IC50 [22]: 0.081 µg/mL
- neutralization IC50 [23]: 0.909 µg/mL
- IC80 neutralization [24]: 0.23 µg/mL
- neutralization IC50 [25]: 0.063 µg/mL
- IC80 neutralization [26]: 0.296 µg/mL
- neutralization IC50 [27]: 0.946 µg/mL
- IC80 neutralization [28]: 0.068 µg/mL
- IC50 (µg/ml), TZM-bl cell neutralization assay, pseudovirus [29]: 0.098 µg/mL
- IC80 neutralization [30]: 0.202 µg/mL
- neutralization IC50 [31]: 0.05 µg/mL
- IC80 neutralization [32]: 0.166 µg/mL
- IC80 (µg/ml), TZM-bl pseudovirus neutralization [33]: > 50 µg/mL
- IC80 neutralization [34]: 0.69 µg/mL
- IC80 (µg/ml), TZM-bl pseudovirus neutralization [35]: 0.284 µg/mL
- IC80 neutralization [36]: 3.63 µg/mL
- neutralization IC50 [37]: 0.053 µg/mL
- IC80 neutralization [38]: 0.413 µg/mL
- neutralization IC50 [39]: 0.059 µg/mL
- neutralization IC50 [40]: > 50 µg/mL
- IC80 neutralization [41]: 0.752 µg/mL
- IC80 neutralization [42]: 0.318 µg/mL
- IC80 neutralization [43]: 0.11 µg/mL
- neutralization IC50 [44]: 0.059 µg/mL
- neutralization IC50 [45]: 0.109 µg/mL
